# From the DeepSol protein solubility set
# Test: soluble on expression in E. coli; label from the status in PepcDB or PDB records
row,Sequence,soluble on expression in E. coli
1,MDPSSKPLREIPGSYGIPFFQPIKDRLEYFYGTGGRDEYFRSRMQKYQSTVFRANMPPGPFVSSNPKVIVLLDAKSFPILFDVSKVEKKDLFTGTYMPSTKLTGGYRVLSYLDPSEPRHAQLKNLLFFMLKNSSNRVIPQFETTYTELFEGLEAELAKNGKAAFNDVGEQAAFRFLGRAYFNSNPEETKLGTSAPTLISSWVLFNLAPTLDLGLPWFLQEPLLHTFRLPAFLIKSTYNKLYDYFQSVATPVMEQAEKLGVPKDEAVHNILFAVCFNTFGGVKILFPNTLKWIGLAGENLHTQLAEEIRGAIKSYGDGNVTLEAIEQMPLTKSVVYESLRIEPPVPPQYGKAKSNFTIESHDATFEVKKGEMLFGYQPFATKDPKVFDRPEEYVPDRFVGDGEALLKYVWWSNGPETESPTVENKQCAGKDFVVLITRLFVIELFRRYDSFEIELGESPLGAAVTLTFLKRASI,soluble
2,MLMKVAEFERLFRQAAGLDVDKNDLKRVSDFLRNKLYDLLAVAERNAKYNGRDLIFEPDLPIAKGLQETLQEFRRMDTALELKPVLDALAALPPLDLEVAEDVRNLLPELAGALVVAYARVLKELDPALKNPQTEHHERAERVFNLLL,soluble
3,MIQMSSNDSSEVIRQCLQVLESITSDSSVPRNIRRSVNEIMDILNNESEPLFLRAASSISILEDISNDPNLPLHTRTLIWNLSSQLETIPVDE,not soluble
4,MTMNANIEVRLKSPAHPGGFIKHEIIEPLALSVSNAAEVLGVSRAALSALLNERAHLPPEMALRIEKAFGVSMDTLMRMQNSYDIAQTRKRAEEIKVAPFSGKPIESNSVV,not soluble
5,MGHHHHHHGSDSEVNQEAKPEVKPEVKPETHINLKVSDGSSEIFFKIKKTTPLRRLMEAFAKRQGKEMDSLRFLYDGIRIQADQAPEDLDMEDNDIIEAHREQIGGDSEVNQEAKPEVKPEVKPETHINLKVSDGSSEIFFKIKKTTPLRRLMEAFAKRQGKEMDSLRFLYDGIRIQADQAPEDLDMEDNDIIEAHREQIGGMFMAKITGSVVSTKKEDSLTGKKLMIVQPIDANGEHVRSEEVACDSVGAGIGEYVLVARGNAARSVFAEPNSAIDSAIIAIVDSFDK,soluble
6,MGSDKIHHHHHHMQDFSNLVEKVENTLIPYFRKIEKRALFNQEKVLNAFHHVKASESDLQGSTGYGYDDFGRDHLEQIYAHTFKADDALVRPQIISGTHAITLALQSTLKNNDELLYITGSPYDTLLEVIGINGNGVESLKEYGVRYNEVELRDGRIDIPKVITAINDNTKVVAIQRSKGYDQRPSITINEIEQAITSIKEVYPNIIIFVDNCYGEFVEDKEPIEVGADLIAGSLIKNPGGGLAKIGGYIAGRQDLIERCGYRLTAPGIGKEAGASLNSLQEMYQGFFLAPHVVSQSLKGALFTSLLLEKINMKTSPKYNVYRTDLIQTVQFETKEQMISFCQSIQHASPINAHFSPEPSYMPGYEDDVIMAAGTFIQGSSIELSADGPIRPPYEAYVQGGLTYEHVKLAVTRAVQHMQENNLL,not soluble
7,METTLVIIRGNSGSGKTTLAQALQRRVGHHTLLVSQDVVRRDMLMSHDYPGNISIGLIEQIVCYGLGRVPVVIVEGILARDRYGKMLARLSQSFPRVLTYYFEVSFATTLARHQKRHRDFGVEDMRRWWLPHDTLGVANEVLIGEQQDLTTEVQQIMTTIHDCDLEHHHHHH,not soluble
8,MADLFNKHLKKATNRTKEKLLEGIGKAKATQDEVFDQHAANLNKQSKSCEKLHKDVKNYSSALRTLLSAEKQLRDTIRDAYEPEWPDREHLTAIFDNLDIQTNELEKTVCDDLPQTVTQYVNQFPDLKKKIEKRGRKLVDYDSAKNSFNSVKASSKKDNDPKLAKATMELQAAEQMYTEMNNELLEILPAVFDSRITFFVDTLQTLFNANSVYQTDASKFHKQIVMQLDKLGESMDYLRVARPEARALTPIDTTSLASSDAPATPDQNKSDNSSLRQTPSPSVLPSPVPAPMAKPRESVVSMANSTNPFDDDDAEHDKEATPTDVEEKFEAKVYPKLNAQQTAAAEQAIAAAKREKKEASNPFDDEDDESTEVEEAPKKKDPEPTPKPLDGITNEKRKTLYFVTSTHNYKAVDTDELSFEQGVQIKVIEANEDDQLDDGWRLGELEDGKRGVFPENFTKKV,not soluble
9,MCTVVIDRRPGDPWPLLVAANRDELADRPWLPPARHWPSRPEVIAGLDELAGGTWMGLNDWGVVACVLNREGTLGPLAGRRSRGELVLDALDMADARDAAEALADIDPRAYRPFNLIVADNRDAFWIRHADAEGRAAVEVHPLAEGLTLMTAHDPDDPLDARARAYLPRFRAAPRPDPQLRDGWAPWTHLLGSRDHAVDDGPTAAMCFSLAGGFGTSSSSLIALPAMERIGVDPLYLFAPAPPDQTDYRPVLEHHHHHH,soluble
10,MAKNKVLGRGLADIFPEINEVYEQGLYERANRVVELGIDEVMPNPYQPRKVFSEDSLEELAQSIKEHGLLQPVLVVSENGRYHLIAGERRLRASKLAKMPTIKAIVVDIEQEKMREVALIENIQREDLNPLELARSYKELLESYQMTQEELSKIVKKSRAHVANIMRLLTLSSKVQNALLEEKITSGHAKVLVGLDGEKQELILNSIIGQKLSVRQTEDLARDFKINANFDNKKHGFKQTQTLIAGDELERLNQSLWDHYKLKAALKGNKIVLRCYENSLLEAFMKKMMS,not soluble
11,MAHHHHHHMRGWTAIRSPQLPTLHHRTVVEHTRPQKKKAKKKHGGRVRLCVWRCRCLPALAAKKTKQEGKKCVLRPTSPRRTPTRHGSLSAPFVAAPPHACSRRGAQGRRHERVGGCASGAVGRETHGTPHRKSAEETIKRGKSRKKKKTSIVIAPKSKKEGMWGVRELKRTN,soluble
12,MSLKYAWIDEQCRHYPLSALCEVLAVSINGYRAWKRGGTVQRKRLTDAQLLTLIRTIHAEVKGAYGSPRMTEEIRARGFPASKARVERLMSKNGIRARHKRRYRVTTDSKHKLPVAPNLLNRDFTPDAPNQVFSSDITYIWTDEGWLYLAVVLDLFNREVVGWSIKPRMTADLVTDALMMAWFRRKPAPGALHHSDRGSQYASHEFQRKLADYGMHCSMSRKGNCWDNAPTESFFNSLKNERVHATHYRTHREAAADLFEYIEVFYSRSRRHSSLGFVPPTQFLQDWLTAQQVKDAVAEGHHHHHH,not soluble
13,MLVGHARKDITPTEPFYLLGYKTELRNQPAKGIHDHIYINALLFYDDKGNECFLATGDLLELEDIVAADIRQKISRKYGIAMDHVIIGVTHDHHSVRDYHRTWEFGKFSQTYYDFFVDSFVQAFEDCRETLTDVTVQYGQQEIFGFYSNRNHANKPSDNAVSVIKFIADGHAVAGIVNMAVHSTVLGPDNQYLTADLAGNTCTKLAKEWGFFPLMLIGCAADSSNRYERQGRDFAELERASSGLAVAISKIQTPKRLCLGKIQTLTLSHEVVNDKPIYDRKLRTMINDLRSGVIKAIGSQSVEAIVEKCEDQLNKPQFHDLLSLQLLDIGELRLFVFPGELASAGAKKLTSFDRLEHHHHHH,not soluble
14,MGSDKIHHHHHHMADLTDLERTRHLVDLLAPARKTRIVDIGANPINDNPYAPLLDIGAAEVWGFEPQTEAFDKLVARNAPDEHYVNAAVGKGGTGTLNICASSGTSSLLTPNVDAMDAVTGWHKYFEVVGTVDVETKRLDNIAEIPEFDLLKIDVQGAEREVFTYGKKRLSTALAVITEVAAIPLYEDQPLLGDQMVLLGKLGFDLHKFLFWKDVVLRSKYLNGMRRRRMRTQLVDGDAVFVRDLLHLKDMETERLKHLTLLADAVFESFDMVLYCLEILEDRGVLTEAAIRTYVARMPYQRDPQPRLVESVGQ,not soluble
15,MGHHHHHHSHMPKVKRSRKAPQDGWELIEPTLDQLDQKMREAETEPHEGKRKVESLWPIFRIHHQKTRYIFDLFYKRKAYSRELLDICYKEGLADKNLLAKWKKQGIGNLCCLRCIQTRDTNFGTNCICRVPKSKLEVGRIIECTHCGCRGCSG,not soluble
16,GIVNVPNPNNTKFQELARFAIQDYNKKQNAHLEFVENLNVKEQVVAGIMYYITLAATDDAGKKKIYKAKIWVKEWEDFKKVVEFKLV,soluble
17,MAHHHHHHMPPPLRSKAESVQREEVCQMVEPKRSMSVRDTLYGQLEFPPVIRILTNSPVVQRLRDLKQLGNSFYVYPGATHSRFEHSLGVCYLGMELYRSIVDGHREEHRDFGVPEIANLTREAAQKDMHCIGIAGLCHDLGHGPLSHLFESFVRSSARPEEVQLRKWSHEQASIMLLRKMWLENETELAELGFTESDLRYVELLINGLAPGKAWPDNVGRPKWARFTTEIIANKRSGLDVDKIDYIQRDSVACLGTPTFVSMSRLFQGARVVVGDNDETSIGYPDKLDGVIEEIFLARSHLHRIVYQHRVTKVIDLMTLDALRAAGDVFEVSNGKDGVMPLRSCVLHPDFYVHASDWIVLAILHGSNRTMAESWGSGASAEHRREKLAEACRILQRIHSRHLYTTIGSYRHSEQTLINAGRLNSVEGSSQEVKREVMIHELLSDIEVTNLDLSVKLREWSRQHNGMTAMEILQAEITQTAGDMDKKHNPVSATYFFNPRQSTHCRVEPHFSCNVTTTLFVKTGPVSSLVVVCRMPLTPQEKESLRVSFTSVADRLGKTDASSFSCTPMSQRGRAAESSQQAASVARDESAATPNHSLAGGERLTSSVSGGYPAAKRLRLDLDTQRSRRDDFDVDQSSEGVLQNDATTSSLELVTAAGYGQVGEKGQDDDDGEETDILSFS,not soluble
18,MGSDKIHHHHHHMPITFVDRESELKFLESLWKRRNSFVPVYGRRRIGKTRLVKEFIKGKPSVYYLSRNSSYNDNLYGFSQVVLEAYPSPYLTPKSFSTFTDIFRYLSEKGKVVVVIDEFPYLINSDKRILSEFQYIIDEIVRNSEIHLILVGSSIGMMEEHVLSQKSPLYGRRDGQIRLHSLDFFSSWKLLGVSLEEAIKIYGVTGGIPAYLILFKKFEDLKNVAFSKQGFLYAEADFLLSSELREPRVYKLILKAIAEGKRRFNEISTFTGIPRPNLFKYIEVLERLGLLRREAPITAPPKTKNTRYKIVDNYIAFYFRFIEKYRHEIELESINFWEEFLEDYNNYLGEVFEDIACQFLVRLNKKRMFPFRFSKIGRWWHKNEEIDLVALDKREKRASFIEVKWKTLKEGEARSILRDLERKSKLVGLDYWNKNYGLIAKHIEGKENLREEGFLAWDLRDFELVKKE,not soluble
19,MTFFFVFLALLSLLAFVIRKAHRNTYEAVLHKVQVGRSEDGDGAIRILQLSDLHLEKLSITPDDLYEKLKEEEIDLIALTGDFLDREESIAKLGPYLAALNALKPTYGMYAVFGNHDYVLQGEPFARLKATLEAHGCVVLQNETKTITVNGQTVNIIGIDDFYTGRSDIEKAYAGVKDGISLVLTHDPDIVPHMKDYHFDYLLSGHFHGGQIHWPKPYHLAKMSKTLTERNMIKGYHEWEGKPFYINEGLGQTGVNIRIGSKPEVTLHLLALPSRREAVKAV,not soluble
20,MGHHHHHHSHEMLPEIGEEKVAIIAPSPSDHPQFKEILQHYVEQGKEVSPSSVRADTLDEELADLLKKAGVKTLTIAPETASDKLQEVINKGIGDEEVMRAAELASTRFEKVKLYYMVGLPGESFEDVKAILEQALRVKKLVGKVEISVNPLVPKPHTPLQWMGFGGEEELREGISHLKKKLEYLRREARRAGIGADVSGFKEFAIQTILSRGDREVAEML,soluble
21,MEAASIAVPGAGASLRAQALDALMTPAWADKLAAVAAIDAGAPVGAQQDLAEPAGLLGRPPAPQLVPPSQVRQRSVQSPEGRAALLHALAHIEFNAINLALDAVWRYGGLPDAYYLDWLKVAREEAYHFDLLNRHLSGLGHAYGDFPAHNGLWEMAEKTRADLLARLALVPRTLEARGLDASPLIRDKLAAAGDADGAAILEIILRDEIGHVAIGNHWYKALCAQRGLDPVAQYAQLASRYGAPRLRGPFNLEARRAAGFDEDELRALLQALEHHHHHH,not soluble
